Data on four variants can be found in IntAct's records for PubMed 31515488.

B1: Notch homolog 2 N-terminal-like protein A (Homo sapiens), Q7Z3S9 (parent)
chain: MCVTYHNGTGYCKCPEGFLGEYCQHRDPCEKNRCQNGGTCVAQAMLGKATCRCASGFTGEDCQYSTSHPCFVSRPCLNGGTCHMLSRDTYECTCQVGFTGKECQWTDACLSHPCANGSTCTTVANQFSCKCLTGFTGQKCETDVNECDIPGHCQHGGTCLNLPGSYQCQCLQGFTGQYCDSLYVPCAPSPCVNGGTCRQTGDFTFECNCLPETVRRGTELWERDREVWNGKEHDEN
B2: Proto-oncogene serine/threonine-protein kinase mos (Homo sapiens), P00540 (parent)
chain: MPSPLALRPYLRSEFSPSVDARPCSSPSELPAKLLLGATLPRAPRLPRRLAWCSIDWEQVCLLQRLGAGGFGSVYKATYRGVPVAIKQVNKCTKNRLASRRSFWAELNVARLRHDNIVRVVAASTRTPAGSNSLGTIIMEFGGNVTLHQVIYGAAGHPEGDAGEPHCRTGGQLSLGKCLKYSLDVVNGLLFLHSQSIVHLDLKPANILISEQDVCKISDFGCSEKLEDLLCFQTPSYPLGGTYTHRAPELLKGEGVTPKADIYSFAITLWQMTTKQAPYSGERQHILYAVVAYDLRPSLSAAVFEDSLPGQRLGDVIQRCWRPSAAQRPSARLLLVDLTSLKAELG
partner: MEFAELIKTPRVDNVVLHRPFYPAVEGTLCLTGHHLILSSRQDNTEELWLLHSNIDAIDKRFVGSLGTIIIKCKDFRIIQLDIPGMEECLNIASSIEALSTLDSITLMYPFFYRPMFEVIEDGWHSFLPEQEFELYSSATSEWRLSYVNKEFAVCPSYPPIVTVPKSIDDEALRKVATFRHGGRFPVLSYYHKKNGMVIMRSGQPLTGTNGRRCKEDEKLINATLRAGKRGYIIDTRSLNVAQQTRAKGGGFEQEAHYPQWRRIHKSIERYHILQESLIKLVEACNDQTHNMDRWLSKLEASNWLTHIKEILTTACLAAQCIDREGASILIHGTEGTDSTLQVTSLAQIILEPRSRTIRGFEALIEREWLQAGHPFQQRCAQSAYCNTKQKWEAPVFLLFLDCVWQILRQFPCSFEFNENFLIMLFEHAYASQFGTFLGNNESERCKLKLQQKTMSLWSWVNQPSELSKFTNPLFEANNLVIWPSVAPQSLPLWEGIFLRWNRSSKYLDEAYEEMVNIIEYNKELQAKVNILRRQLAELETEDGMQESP
B3: Zinc finger protein 414 (Homo sapiens), Q96IQ9 (parent)
chain: MEEKPSGPIPDMLATAEPSSSETDKEVLSPAVPAAAPSSSMSEEPGPEQAATPPVWERGGAGGMQQGSSPAPDSCQPGPGPSPGLTSIVSGTSEDLRPPRRRPPPGKQIPCSSPGCCLSFPSVRDLAQHLRTHCPPTQSLEGKLFRCSALSCTETFPSMQELVAHSKLHYKPNRYFKCENCLLRFRTHRSLFKHLHVCAEHAQSPAPPPPPALDREPPAPERPPEVDPASAPGLPFPLLEPFTTPAPAPTGPFLPYLNPAPFGLSPPRLRPFLAAAPGPPASSAAVWKKSQGAGSSPRRPQGGSDAPSGACR
partner: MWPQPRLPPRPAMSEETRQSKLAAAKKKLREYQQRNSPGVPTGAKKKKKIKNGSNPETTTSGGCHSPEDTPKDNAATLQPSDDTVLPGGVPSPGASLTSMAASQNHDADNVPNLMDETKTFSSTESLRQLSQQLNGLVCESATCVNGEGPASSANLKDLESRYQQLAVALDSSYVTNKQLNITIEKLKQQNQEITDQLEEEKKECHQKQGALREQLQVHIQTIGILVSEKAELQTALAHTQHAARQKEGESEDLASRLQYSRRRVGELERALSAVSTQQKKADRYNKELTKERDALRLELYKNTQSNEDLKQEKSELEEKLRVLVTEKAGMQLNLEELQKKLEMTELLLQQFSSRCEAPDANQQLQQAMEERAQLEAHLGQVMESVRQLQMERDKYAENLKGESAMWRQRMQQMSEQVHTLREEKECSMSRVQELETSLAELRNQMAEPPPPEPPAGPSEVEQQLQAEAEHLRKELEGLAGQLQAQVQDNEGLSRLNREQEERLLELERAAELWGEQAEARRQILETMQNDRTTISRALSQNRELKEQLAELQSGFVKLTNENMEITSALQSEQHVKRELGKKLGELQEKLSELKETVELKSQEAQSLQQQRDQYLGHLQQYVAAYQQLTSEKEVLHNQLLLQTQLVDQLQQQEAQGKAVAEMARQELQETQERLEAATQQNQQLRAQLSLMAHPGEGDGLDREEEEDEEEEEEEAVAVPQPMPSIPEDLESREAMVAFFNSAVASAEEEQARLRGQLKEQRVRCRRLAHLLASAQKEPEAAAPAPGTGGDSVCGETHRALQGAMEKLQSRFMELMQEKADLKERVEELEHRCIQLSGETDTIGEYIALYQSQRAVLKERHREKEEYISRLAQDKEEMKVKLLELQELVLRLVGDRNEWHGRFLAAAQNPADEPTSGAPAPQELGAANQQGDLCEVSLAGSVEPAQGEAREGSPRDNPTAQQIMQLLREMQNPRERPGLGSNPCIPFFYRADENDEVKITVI

One experiment covers variants of B1. The following applies: with pde9a_human PDE9A.
With A115T, the “effect of a mutation on the interaction” value is reported as “with no effect”.

The variants in the next experiment derive from B1. The following applies: with ppbi_human ALPI.
Regarding A115T, the “effect of a mutation on the interaction” value is “with no effect”.

Variants of B1 are the subject of another experiment. The following applies: with snai1_human SNAI1, O95863.
On to A115T, for which the “effect of a mutation on the interaction” value is “with no effect”.

The next experiment covers variants of B1. The following applies: with anfb_human NPPB.
As for A115T, the “effect of a mutation on the interaction” value is recorded as “with no effect”.

The next experiment covers variants of B1. Conditions: with adck5_human ADCK5, Q3MIX3.
Sequence of adck5_human ADCK5, Q3MIX3 (Q3MIX3 whole entry): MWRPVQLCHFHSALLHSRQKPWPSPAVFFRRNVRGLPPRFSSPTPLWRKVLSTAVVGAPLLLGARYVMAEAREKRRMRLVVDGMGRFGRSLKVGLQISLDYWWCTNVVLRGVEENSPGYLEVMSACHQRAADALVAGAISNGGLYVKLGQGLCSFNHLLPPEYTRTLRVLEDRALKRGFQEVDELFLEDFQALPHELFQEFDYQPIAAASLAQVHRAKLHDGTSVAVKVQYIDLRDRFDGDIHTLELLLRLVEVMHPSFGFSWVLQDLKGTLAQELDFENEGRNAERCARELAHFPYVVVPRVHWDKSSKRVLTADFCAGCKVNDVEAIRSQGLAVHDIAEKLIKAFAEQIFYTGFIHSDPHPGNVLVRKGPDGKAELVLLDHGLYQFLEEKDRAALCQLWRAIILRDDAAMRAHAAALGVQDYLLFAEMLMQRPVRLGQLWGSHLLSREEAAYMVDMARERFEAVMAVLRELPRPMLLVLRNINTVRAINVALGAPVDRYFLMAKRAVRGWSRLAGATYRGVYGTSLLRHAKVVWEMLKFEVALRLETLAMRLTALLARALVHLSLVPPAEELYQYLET
For A115T, the “effect of a mutation on the interaction” value is given as “with no effect”.

In another experiment the parent is B1. The following applies: with catz_human CTSZ.
Take A115T: the “effect of a mutation on the interaction” value is “with no effect”.

In a further experiment the parent is B1. The following applies: with txnd5_human TXNDC5, Q8NBS9.
Sequence of txnd5_human TXNDC5, Q8NBS9 (Q8NBS9 whole entry): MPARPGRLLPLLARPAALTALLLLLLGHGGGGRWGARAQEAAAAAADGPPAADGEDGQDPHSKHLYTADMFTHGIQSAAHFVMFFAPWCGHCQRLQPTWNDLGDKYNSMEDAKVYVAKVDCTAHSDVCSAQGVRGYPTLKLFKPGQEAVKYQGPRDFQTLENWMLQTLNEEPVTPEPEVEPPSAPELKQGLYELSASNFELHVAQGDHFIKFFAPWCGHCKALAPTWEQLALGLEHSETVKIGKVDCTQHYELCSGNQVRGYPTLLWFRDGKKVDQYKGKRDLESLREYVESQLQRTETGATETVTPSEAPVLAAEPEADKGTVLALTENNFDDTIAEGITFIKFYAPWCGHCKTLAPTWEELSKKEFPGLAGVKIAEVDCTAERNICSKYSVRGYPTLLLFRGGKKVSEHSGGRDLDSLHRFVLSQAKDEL
Regarding A115T, the “effect of a mutation on the interaction” value is on record as “with no effect”.

The variants in a further experiment derive from B1. The following applies: with trpv6_human TRPV6, Q9H1D0.
Sequence of trpv6_human TRPV6, Q9H1D0 (Q9H1D0 whole entry): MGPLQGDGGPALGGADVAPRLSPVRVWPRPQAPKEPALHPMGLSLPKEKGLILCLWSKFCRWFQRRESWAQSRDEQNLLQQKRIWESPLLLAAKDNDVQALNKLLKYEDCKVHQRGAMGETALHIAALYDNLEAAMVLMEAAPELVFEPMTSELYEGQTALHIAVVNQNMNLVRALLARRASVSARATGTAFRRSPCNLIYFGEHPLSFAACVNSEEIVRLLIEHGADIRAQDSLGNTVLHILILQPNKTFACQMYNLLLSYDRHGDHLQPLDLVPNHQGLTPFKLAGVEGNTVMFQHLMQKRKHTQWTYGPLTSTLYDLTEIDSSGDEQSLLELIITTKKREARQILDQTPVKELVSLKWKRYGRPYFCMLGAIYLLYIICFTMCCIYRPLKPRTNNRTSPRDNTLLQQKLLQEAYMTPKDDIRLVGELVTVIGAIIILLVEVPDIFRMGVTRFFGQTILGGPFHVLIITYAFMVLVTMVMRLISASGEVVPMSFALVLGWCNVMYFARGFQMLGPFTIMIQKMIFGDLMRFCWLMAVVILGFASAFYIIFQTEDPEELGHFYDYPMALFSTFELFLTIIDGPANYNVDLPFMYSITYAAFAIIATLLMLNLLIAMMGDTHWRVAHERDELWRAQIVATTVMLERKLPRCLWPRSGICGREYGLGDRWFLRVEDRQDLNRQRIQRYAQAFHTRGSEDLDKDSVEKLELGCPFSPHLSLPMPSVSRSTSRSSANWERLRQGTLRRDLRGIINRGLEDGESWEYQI
Consider A115T, for which the “effect of a mutation on the interaction” value was “with no effect”.

In the next experiment the parent is B1. Conditions: with ptn23_human PTPN23, Q9H3S7.
Sequence of ptn23_human PTPN23, Q9H3S7 (Q9H3S7 whole entry): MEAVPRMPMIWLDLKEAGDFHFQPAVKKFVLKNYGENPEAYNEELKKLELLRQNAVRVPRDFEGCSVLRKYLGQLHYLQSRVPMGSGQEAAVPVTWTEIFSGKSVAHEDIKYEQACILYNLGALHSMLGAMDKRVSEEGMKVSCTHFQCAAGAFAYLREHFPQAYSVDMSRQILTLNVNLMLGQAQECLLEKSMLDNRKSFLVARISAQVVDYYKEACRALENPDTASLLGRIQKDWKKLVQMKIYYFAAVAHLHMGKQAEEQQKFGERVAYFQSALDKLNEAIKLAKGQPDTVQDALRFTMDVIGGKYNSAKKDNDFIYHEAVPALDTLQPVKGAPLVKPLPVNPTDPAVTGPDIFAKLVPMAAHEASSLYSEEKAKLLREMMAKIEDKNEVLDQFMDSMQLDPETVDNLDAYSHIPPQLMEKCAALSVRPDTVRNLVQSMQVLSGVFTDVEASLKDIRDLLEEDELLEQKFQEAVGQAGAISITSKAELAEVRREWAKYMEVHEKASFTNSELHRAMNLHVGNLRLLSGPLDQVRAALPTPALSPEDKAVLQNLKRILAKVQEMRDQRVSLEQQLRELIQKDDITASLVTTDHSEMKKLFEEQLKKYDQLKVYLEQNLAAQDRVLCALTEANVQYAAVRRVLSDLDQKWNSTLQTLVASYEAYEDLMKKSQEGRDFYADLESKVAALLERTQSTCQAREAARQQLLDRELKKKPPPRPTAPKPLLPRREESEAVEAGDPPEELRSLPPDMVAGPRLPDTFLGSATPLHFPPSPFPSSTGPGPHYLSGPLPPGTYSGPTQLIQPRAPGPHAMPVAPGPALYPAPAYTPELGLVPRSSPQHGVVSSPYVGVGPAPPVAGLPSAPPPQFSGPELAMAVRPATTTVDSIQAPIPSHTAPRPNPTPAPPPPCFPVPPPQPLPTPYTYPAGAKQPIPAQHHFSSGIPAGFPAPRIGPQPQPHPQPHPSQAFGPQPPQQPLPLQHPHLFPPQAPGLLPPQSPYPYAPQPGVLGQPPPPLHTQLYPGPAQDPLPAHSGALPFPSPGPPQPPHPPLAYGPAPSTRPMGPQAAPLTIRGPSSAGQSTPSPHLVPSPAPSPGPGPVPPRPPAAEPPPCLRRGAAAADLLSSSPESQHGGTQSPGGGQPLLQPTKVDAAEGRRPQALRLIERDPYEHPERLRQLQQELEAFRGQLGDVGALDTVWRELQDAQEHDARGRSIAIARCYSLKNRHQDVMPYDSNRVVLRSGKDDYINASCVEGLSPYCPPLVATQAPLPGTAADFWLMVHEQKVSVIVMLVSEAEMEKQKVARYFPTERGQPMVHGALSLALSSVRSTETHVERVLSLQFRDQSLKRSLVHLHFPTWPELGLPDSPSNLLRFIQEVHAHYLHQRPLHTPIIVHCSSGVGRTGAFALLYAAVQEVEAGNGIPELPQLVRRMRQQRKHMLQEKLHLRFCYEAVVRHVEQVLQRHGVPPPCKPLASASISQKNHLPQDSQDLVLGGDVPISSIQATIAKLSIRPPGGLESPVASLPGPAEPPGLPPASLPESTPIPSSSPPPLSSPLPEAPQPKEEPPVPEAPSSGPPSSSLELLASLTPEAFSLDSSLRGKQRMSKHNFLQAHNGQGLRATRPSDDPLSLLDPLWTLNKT
In the case of A115T, the “effect of a mutation on the interaction” value was “with no effect”.

Variants of B1 are the subject of a further experiment. The following applies: with gata2_human GATA2, P23769.
With A115T, the “effect of a mutation on the interaction” value is “with no effect”.

Variants of B1 are the subject of another experiment. The following applies: with hbaz_human HBZ.
As for A115T, the “effect of a mutation on the interaction” value is given as “with no effect”.

In a further experiment the parent is B1. Conditions: with nect3_human NECTIN3, Q9NQS3.
A115T: the “effect of a mutation on the interaction” value is recorded as “with no effect”.

Variants of B1 are the subject of another experiment. The following applies: with itb2_human ITGB2, P05107.
Sequence of itb2_human ITGB2, P05107 (P05107 whole entry): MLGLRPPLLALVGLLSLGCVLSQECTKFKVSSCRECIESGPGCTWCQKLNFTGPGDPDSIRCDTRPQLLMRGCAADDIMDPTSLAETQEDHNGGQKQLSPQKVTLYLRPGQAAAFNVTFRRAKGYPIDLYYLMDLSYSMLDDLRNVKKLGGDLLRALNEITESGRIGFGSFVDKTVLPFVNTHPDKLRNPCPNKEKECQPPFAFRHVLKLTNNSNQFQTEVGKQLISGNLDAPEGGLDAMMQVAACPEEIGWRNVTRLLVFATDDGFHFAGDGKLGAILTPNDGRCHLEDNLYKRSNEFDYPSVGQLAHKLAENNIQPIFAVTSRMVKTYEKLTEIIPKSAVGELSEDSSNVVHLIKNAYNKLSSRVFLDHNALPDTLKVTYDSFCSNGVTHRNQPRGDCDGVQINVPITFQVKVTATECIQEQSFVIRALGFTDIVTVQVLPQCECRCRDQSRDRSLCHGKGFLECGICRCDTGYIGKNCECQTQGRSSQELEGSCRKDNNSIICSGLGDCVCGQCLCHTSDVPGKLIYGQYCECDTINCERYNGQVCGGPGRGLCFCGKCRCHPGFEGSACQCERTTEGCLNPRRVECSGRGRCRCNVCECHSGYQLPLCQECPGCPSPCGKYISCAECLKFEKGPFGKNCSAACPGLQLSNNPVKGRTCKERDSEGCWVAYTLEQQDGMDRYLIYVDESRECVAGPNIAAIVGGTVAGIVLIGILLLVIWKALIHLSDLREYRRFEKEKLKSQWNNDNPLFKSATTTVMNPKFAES
Consider A115T, for which the “effect of a mutation on the interaction” value is given as “with no effect”.

Variants of B1 are the subject of a further experiment. Conditions: with cd5r1_human CDK5R1, Q15078.
Sequence of cd5r1_human CDK5R1, Q15078 (Q15078 whole entry): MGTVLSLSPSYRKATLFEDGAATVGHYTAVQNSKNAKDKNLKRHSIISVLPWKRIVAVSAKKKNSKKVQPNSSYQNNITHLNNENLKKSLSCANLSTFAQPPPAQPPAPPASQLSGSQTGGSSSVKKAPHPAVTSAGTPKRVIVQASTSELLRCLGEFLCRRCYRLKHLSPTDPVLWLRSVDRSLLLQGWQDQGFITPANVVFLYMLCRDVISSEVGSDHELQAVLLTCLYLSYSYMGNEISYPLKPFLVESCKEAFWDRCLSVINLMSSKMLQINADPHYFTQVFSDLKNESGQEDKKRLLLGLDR
In the case of A115T, the “effect of a mutation on the interaction” value was “with no effect”.

In a further experiment the parent is B1. Conditions: with uxt_human UXT.
Turning to A115T, the “effect of a mutation on the interaction” value is listed as “with no effect”.

Variants of B1 are the subject of another experiment. The following applies: with yipf3_human YIPF3, Q9GZM5.
Sequence of yipf3_human YIPF3, Q9GZM5 (Q9GZM5 whole entry): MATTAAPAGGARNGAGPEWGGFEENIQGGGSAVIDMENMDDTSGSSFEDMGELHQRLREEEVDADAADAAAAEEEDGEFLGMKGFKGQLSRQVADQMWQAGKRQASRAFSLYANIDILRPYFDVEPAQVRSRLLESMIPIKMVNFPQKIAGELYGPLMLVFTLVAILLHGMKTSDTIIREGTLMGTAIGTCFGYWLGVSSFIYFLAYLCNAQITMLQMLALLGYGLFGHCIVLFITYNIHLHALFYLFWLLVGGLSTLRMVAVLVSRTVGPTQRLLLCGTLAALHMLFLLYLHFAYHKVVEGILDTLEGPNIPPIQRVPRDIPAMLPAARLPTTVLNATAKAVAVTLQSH
For the variant A115T, the “effect of a mutation on the interaction” value is given as “with no effect”.

The next experiment covers variants of B1. Conditions: with thms2_human THEMIS2, Q5TEJ8.
Take A115T: the “effect of a mutation on the interaction” value was “with no effect”.

The variants in the next experiment derive from B1. Conditions: with bmp7_human BMP7, P18075.
As for A115T, the “effect of a mutation on the interaction” value is “with no effect”.

The variants in another experiment derive from B1. The following applies: with cxcl5_human CXCL5, P42830.
Sequence of cxcl5_human CXCL5, P42830 (P42830 whole entry): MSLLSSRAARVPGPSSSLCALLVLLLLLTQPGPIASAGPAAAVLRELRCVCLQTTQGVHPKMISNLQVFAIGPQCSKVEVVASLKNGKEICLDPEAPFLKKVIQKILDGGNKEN
Take A115T: the “effect of a mutation on the interaction” value is on record as “with no effect”.

Variants of B2 are the subject of another experiment. The following applies: with mtmr9_human MTMR9, Q96QG7.
With I55V, the “effect of a mutation on the interaction” value is given as “with no effect”.

In a further experiment the parent is B3. The following applies: with goga2_human GOLGA2, Q08379.
As to P77S, the “effect of a mutation on the interaction” value is reported as “with no effect”.
Turning to S166G, the “effect of a mutation on the interaction” value is listed as “with no effect”.
